From paper doi:10.1101/2025.04.23.650173 (bioRxiv, 2025)
Like-named read-outs stand apart in the source and are kept apart here.

Key:
AUC [1] = biological target: the molecule itself; experiment: AUC
AUC [2] = biological target: the molecule itself; experiment: AUC; remark: listed apart in the source

B1: wild type murine CXCL4 (natural protein, mouse, UniProt Q9Z126 30-105, looked up)
chain: VTSAGPEESDGDLSCVCVKTISSGIHLKHITSLEVIKAGRHCAVPQLIATLKNGRKICLDRQAPLYKKVIKKILES
stoichiometry N (AUC [1]): 4
stoichiometry N (AUC [2]): 2
